Data published in the supplement of paper PMC11246515.
± gives the standard deviation of the averaged measurements.

Experiment: total protein half-life in vivo (active degradation + dilution); higher = more stable protein
[1] = E. coli NCM3722 delta-clpP delta-lon delta-hslV, growth: N-lim chemostat, doubling time 6 h
[2] = E. coli NCM3722 delta-clpP, growth: N-lim chemostat, doubling time 6 h
[3] = E. coli NCM3722 delta-hslV, growth: N-lim chemostat, doubling time 6 h
[4] = E. coli NCM3722 delta-lon, growth: N-lim chemostat, doubling time 6 h
[5] = E. coli NCM3722 delta-smpB, growth: N-lim chemostat, doubling time 6 h
[6] = wild type E. coli NCM3722, growth: C-lim chemostat, doubling time 3 h
[7] = wild type E. coli NCM3722, growth: C-lim chemostat, doubling time 6 h
[8] = wild type E. coli NCM3722, growth: C-lim chemostat, doubling time 12 h
[9] = wild type E. coli NCM3722, growth: N-lim chemostat, doubling time 6 h
[10] = wild type E. coli NCM3722, growth: N-lim chemostat, doubling time 12 h
[11] = wild type E. coli NCM3722, growth: P-lim chemostat, doubling time 6 h
[12] = wild type E. coli NCM3722, growth: P-lim chemostat, doubling time 12 h

Row | Sequence | total protein half-life in vivo [1] [h] | total protein half-life in vivo [2] [h] | total protein half-life in vivo [3] [h] | total protein half-life in vivo [4] [h] | total protein half-life in vivo [5] [h] | total protein half-life in vivo [6] [h] | total protein half-life in vivo [7] [h] | total protein half-life in vivo [8] [h] | total protein half-life in vivo [9] [h] | total protein half-life in vivo [10] [h] | total protein half-life in vivo [11] [h] | total protein half-life in vivo [12] [h]
1 | MSELNEKLATAWEGFTKGDWQNEVNVRDFIQKNYTPYEGDESFLAGATEATTTLWDKVMEGVKLENRTHAPVDFDTAVASTITSHDAGYINKQLEKIVGLQTEAPLKRALIPFGGIKMIEGSCKAYNRELDPMIKKIFTEYRKTHNQGVFDVYTPDILRCRKSGVLTGLPDAYGRGRIIGDYRRVALYGIDYLMKDKLAQFTSLQADLENGVNLEQTIRLREEIAEQHRALGQMKEMAAKYGYDISGPATNAQEAIQWTYFGYLAAVKSQNGAAMSFGRTSTFLDVYIERDLKAGKITEQEAQEMVDHLVMKLRMVRFLRTPEYDELFSGDPIWATESIGGMGLDGRTLVTKNSFRFLNTLYTMGPSPEPNMTILWSEKLPLNFKKFAAKVSIDTSSLQYENDDLMRPDFNNDDYAIACCVSPMIVGKQMQFFGARANLAKTMLYAINGGVDEKLKMQVGPKSEPIKGDVLNYDEVMERMDHFMDWLAKQYITALNIIHYMHDKYSYEASLMALHDRDVIRTMACGIAGLSVAADSLSAIKYAKVKPIRDEDGLAIDFEIEGEYPQFGNNDPRVDDLAVDLVERFMKKIQKLHTYRDAIPTQSVLTITSNVVYGKKTGNTPDGRRAGAPFGPGANPMHGRDQKGAVASLTSVAKLPFAYAKDGISYTFSIVPNALGKDDEVRKTNLAGLMDGYFHHEASIEGGQHLNVNVMNREMLLDAMENPEKYPQLTIRVSGYAVRFNSLTKEQQQDVITRTFTQSM | 4.8 ± 0.094 | 3.3 ± 0.053 | 2.98 ± 0.12 | 3.71 ± 0.17 | 2.58 ± 0.067 | 2 ± 0.078 | 3.04 ± 0.058 | 4.18 ± 0.3 | 3.04 ± 0.21 | 4.452 ± 0.017 | 3.36 ± 0.26 | 6.13 ± 0.27
2 | MKTAKEYSDTAKREVSVDVDALLAAINEISESEVHRSQNDSEHVSVDGREYHTWRELADAFELDIHDFSVSEVNR | 4.23 ± 0.73 | 1.58 | – | 0.678 | 0.551 | – | – | 1.38 | – | 1.03 | – | –
3 | MNIFEQTPPNRRRYGLAAFIGLIAGVVSAFVKWGAEVPLPPRSPVDMFNAACGPESLIRAAGQIDCSRNFLNPPYIFLRDWLGLTDPNAAVYTFAGHVFNWVGVTHIIFSIVFAVGYCVVAEVFPKIKLWQGLLAGALAQLFVHMISFPLMGLTPPLFDLPWYENVSEIFGHLVWFWSIEIIRRDLRNRITHEPDPEIPLGSNR [P0AAA1] | 6.706 ± 0.025 | – | – | 6.72 ± 0.32 | 6.16 ± 0.29 | 3.21 ± 0.28 | 6.707 ± 0.0077 | 14.5 ± 0.3 | 5.96 ± 0.12 | – | 6.57 ± 1.5 | 13.7 ± 1.1
4 | MAGWFELSKSSDNQFRFVLKAGNGETILTSELYTSKTSAEKGIASVRSNSPQEERYEKKTASNGKFYFNLKAANHQIIGSSQMYATAQSRETGIASVKANGTSQTVKDNT | – | 5.5 ± 0.46 | 6 ± 0.94 | 6.31 ± 1.2 | 5.48 ± 0.5 | 3.2 ± 0.24 | 5.83 ± 0.21 | 11.2 ± 0.74 | 5.24 ± 0.059 | 9.51 ± 0.29 | 5.54 ± 0.092 | 11 ± 0.41
5 | MNLSLRRSTSALLASSLLLTIGRGATLPFMTIYLSRQYSLSVDLIGYAMTIALTIGVVFSLGFGILADKFDKKRYMLLAITAFASGFIAITLVNNVTLVVLFFALINCAYSVFATVLKAWFADNLSSTSKTKIFSINYTMLNIGWTIGPPLGTLLVMQSINLPFWLAAICSAFPMLFIQIWVKRSEKIIATETGSVWSPKVLLQDKALLWFTCSGFLASFVSGAFASCISQYVMVIADGDFAEKVVAVVLPVNAAMVVTLQYSVGRRLNPANIRALMTAGTLCFVIGLVGFIFSGNSLLLWGMSAAVFTVGEIIYAPGEYMLIDHIAPPEMKASYFSAQSLGWLGAAINPLVSGVVLTSLPPSSLFVILALVIIAAWVLMLKGIRARPWGQPALC | – | – | – | – | – | 1.77 | – | – | – | – | – | –
6 | MTNRLVLSGTVCRAPLRKVSPSGIPHCQFVLEHRSVQEEAGFHRQAWCQMPVIVSGHENQAITHSITVGSRITVQGFISCHKAKNGLSKMVLHAEQIELIDSGD | – | – | – | – | 4.72 | 2.97 | – | – | 5.76 | – | – | 15.6
7 | MMDLDNIPDTQTEAEELEEVVMGLIINSGQARSLAYAALKQAKQGDFAAAKAMMDQSRMALNEAHLVQTKLIEGDAGEGKMKVSLVLVHAQDHLMTSMLARELITELIELHEKLKA | 4.73 | 2.85 ± 0.031 | – | – | – | 1.44 | 1.82 ± 0.14 | 2.66 | – | – | – | –
8 | MVISIRRSRHEEGEELVAIWCRSVDATHDFLSAEYRTELEDLVRSFLPEAPLWVAVNERDQPVGFMLLSGQHMDALFIDPDVRGCGVGRVLVEHALSMAPELTTNVNEQNEQAVGFYKKVGFKVTGRSEVDDLGKPYPLLNLAYVGA | 3.78 | – | – | – | – | – | – | – | – | – | – | –
9 | MNNFNLHTPTRILFGKGAIAGLREQIPHDARVLITYGGGSVKKTGVLDQVLDALKGMDVLEFGGIEPNPAYETLMNAVKLVREQKVTFLLAVGGGSVLDGTKFIAAAANYPENIDPWHILQTGGKEIKSAIPMGCVLTLPATGSESNAGAVISRKTTGDKQAFHSAHVQPVFAVLDPVYTYTLPPRQVANGVVDAFVHTVEQYVTKPVDAKIQDRFAEGILLTLIEDGPKALKEPENYDVRANVMWAATQALNGLIGAGVPQDWATHMLGHELTAMHGLDHAQTLAIVLPALWNEKRDTKRAKLLQYAERVWNITEGSDDERIDAAIAATRNFFEQLGVPTHLSDYGLDGSSIPALLKKLEEHGMTQLGENHDITLDVSRRIYEAAR | – | 5.02 ± 0.23 | 4.48 ± 0.25 | 4.949 ± 0.041 | 4.48 ± 0.23 | 3.27 ± 0.089 | 6.48 ± 1 | 11.6 ± 0.92 | 5.22 ± 0.38 | 7.834 ± 0.065 | 5.35 ± 0.47 | 10.2 ± 0.89
